Data on six substances can be found in US20100015126A1, “Methods of Binding of Cross-Beta Structures By Chaperones” (priority 2006, published 2010).

T1 sequence (P10809 27-573): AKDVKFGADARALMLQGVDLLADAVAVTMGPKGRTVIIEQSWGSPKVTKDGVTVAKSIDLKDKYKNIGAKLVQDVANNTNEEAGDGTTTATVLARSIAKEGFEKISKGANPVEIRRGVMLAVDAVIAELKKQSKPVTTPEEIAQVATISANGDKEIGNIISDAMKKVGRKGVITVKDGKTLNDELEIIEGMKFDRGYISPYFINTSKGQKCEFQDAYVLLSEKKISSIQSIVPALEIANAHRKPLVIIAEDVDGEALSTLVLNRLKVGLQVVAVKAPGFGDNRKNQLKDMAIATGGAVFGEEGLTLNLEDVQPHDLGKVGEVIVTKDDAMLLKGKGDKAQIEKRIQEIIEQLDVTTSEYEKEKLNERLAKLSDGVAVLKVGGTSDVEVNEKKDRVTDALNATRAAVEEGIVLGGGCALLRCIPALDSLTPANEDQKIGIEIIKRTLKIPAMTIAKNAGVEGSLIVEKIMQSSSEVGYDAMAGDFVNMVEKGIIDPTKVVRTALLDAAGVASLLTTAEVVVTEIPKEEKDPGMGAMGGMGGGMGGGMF

The assay addresses T1, human mitochondrial HSP60 (Homo sapiens, UniProt P10809).
T1 construct: Dr. W. van Eden, Utrecht University; host or cells: E. coli
The assay is described as follows: ELISA: binding of HSP60 to immobilized (misfolded) protein ligands. The method, then: Recombinant human HSP60 with N-terminal His-tag was a kind gift of Dr. R. van der Zee and Prof. Dr. W. van Eden (Institute of Infectious Diseases and Immunology, Faculty of Veterinary Medicine, Utrecht University, Utrecht, The Netherlands), and was supplied in lyophilized form. The HSP60 was produced in E. coli and purified using Nickel-Sepharose. The HSP60 was lyophilized from 20-40 mM ammonium-bicarbonate solution, after purification, and stored at −20° C. The construct lacks the mitochondrial signal sequence. […] Before use, the lyophilized protein is dissolved at room temperature at 1 mg/ml in 20-40 mM NH4HCO3, resulting in a pH of 7.0. Aliquots are stored at −20° C. or −80° C. The mitochondrial HSP60 is a functional dimer of heptamers (MW(HSP60 monomer)=˜58 kDa), and is involved in multimer protein assembling and aids in transport of unfolded proteins across membranes. For the binding studies, at two occasions separate HSP60 solutions were prepared originating from the same batch of purified protein, lyophilized in separate Eppendorf cups.
Binding of chaperones to immobilized (misfolded) protein ligands was determined using an enzyme linked immuno sorbent assay (ELISA) approach. For this purpose 50 μl/well of potential ligands at indicated concentrations or coat buffer only for control and background measurement purposes, were coated overnight at 4° C. or coated for 1 h at room temperature, with motion, in 50 mM NaHCO3 pH 9.6 (coat buffer). In general, ligands were coated at 5 μg/ml, unless stated otherwise. For example, BiP binding peptides 6BB# and oxLDL were coated at 50 μg/ml. Native haemoglobin (Sigma-Aldrich, H7379), albumin, IgIV Gammagard and ovalbumin controls were prepared from lyophilized stocks. The controls were prepared by dissolving lyophilized proteins at 1 mg/ml in PBS upon resuspending by pipetting, followed by a 30 minutes period at the roller device, at room temperature. The protein solutions were centrifuged for 10 minutes at 16,000*g and diluted in coat buffer. After coating the plates were washed at least three times with 50 mM Tris-HCl pH 7.3, 150 mM NaCl, 0.1% v/v Tween20, and blocked with Blocking reagent (Roche Diagnostics, Almere, The Netherlands; 11112589001), for 1 h at room temperature, with motion. Plates were washed three times and incubated in triplicate with indicated chaperone dilution series, at 50 μl/well, for 1 h at room temperature, with constant motion. For HSP90, 5 mM DTT is incorporated in the binding buffer (PBS/0.1% Tween20) to avoid unwanted disulfide bond formation of the HSP90. Plates were washed three times and incubated with anti-FLAG antibody (mouse antibody, M2, peroxidase conjugate; Sigma, A-8592) for BiP-FLAG-His, anti-His-tag antibody (Mouse Monoclonal Antibody, Cat. No. 70796, Novagen [0.2 mg/ml]) for HSP60, a 1:1 mix of 500-fold diluted anti-HSP90beta antibodies (Stressgen, SPA-643 [mouse monoclonal IgM], SPA-646 [rabbit polyclonal]) for HSP90 and an anti-DnaK antibody (Stressgen, 023SPA-880D [mouse monoclonal antibody]) for DnaK. After four wash cycles, secondary antibodies were added to the wells when required, 50 μl/well, for 45′ at room temperature, with motion. RAMPO and SWARPO were used at 3000 times dilution. […] In a second experiment with more immobilized misfolded proteins and controls, the detection of bound HSP90 with the mix of two anti-HSP90 antibodies was achieved by mixing 1:1500 SWARPO with 1:3000 RAMPO. After 5 washes with wash buffer followed by two washes with PBS, binding of antibodies was assessed. Bound anti-FLAG-PO, peroxidase-conjugated rabbit anti-mouse immunoglobulins (RAMPO, P0260, DAKOCytomation, Glostrup, Denmark) or peroxidase-coupled swine anti-rabbit immunoglobulins (SWARPO, P0217, DAKOCytomation) was visualized with tetramethylbenzidine (TMB, #45.01.20,/#45.014.01, Biosource, Nivelles, Belgium). The reaction was stopped after 5 minutes with 1% H2SO4 in H2O. Plates were read at 450 nm. […]
As to BSA-AGE, the “Binding of concentration series of HSP60 to coated ligand” value (shortened to “Binding”) is listed as “has been established”. As for GSNKGAIIGLM [6BB6, Human Aβ (25-35)], the “Binding” value is “has been established”. With “Hb: non-modified human haemoglobin control”, the “Binding” value was “did not bind”.

Regarding “HbAGE: human haemoglobin glycated with glucose-6-phosphate for 75 weeks”, the “Binding” value was “has been established”. Take KLVFFAE [6BB12, Human Aβ16-22]: the “Binding” value is on record as “did not bind”. As for “native BSA: non-modified bovine serum albumin control”, the entry is “did not bind”.
